Data taken from article PMC6733924.

Tests used:
[1] = molecular target: GST fused to the TRPM8 C-terminal tail; test: pull-down; as a4, with 1, 10 or 100 nM testosterone during incubation of in vitro translated AR with the N- or C-terminal tail of TRPM8
[2] = molecular target: GST fused to the TRPM8 N-terminal tail; test: pull-down; purified GST-fusion proteins of the TRPM8 tails on beads incubated overnight at 4 °C with in vitro translated AR proteins, no testosterone; fluorescence imaging or anti-AR immunoblot; normalised to the input

in vitro translated AR, sequence (P10275 whole entry, the tested form may be a part): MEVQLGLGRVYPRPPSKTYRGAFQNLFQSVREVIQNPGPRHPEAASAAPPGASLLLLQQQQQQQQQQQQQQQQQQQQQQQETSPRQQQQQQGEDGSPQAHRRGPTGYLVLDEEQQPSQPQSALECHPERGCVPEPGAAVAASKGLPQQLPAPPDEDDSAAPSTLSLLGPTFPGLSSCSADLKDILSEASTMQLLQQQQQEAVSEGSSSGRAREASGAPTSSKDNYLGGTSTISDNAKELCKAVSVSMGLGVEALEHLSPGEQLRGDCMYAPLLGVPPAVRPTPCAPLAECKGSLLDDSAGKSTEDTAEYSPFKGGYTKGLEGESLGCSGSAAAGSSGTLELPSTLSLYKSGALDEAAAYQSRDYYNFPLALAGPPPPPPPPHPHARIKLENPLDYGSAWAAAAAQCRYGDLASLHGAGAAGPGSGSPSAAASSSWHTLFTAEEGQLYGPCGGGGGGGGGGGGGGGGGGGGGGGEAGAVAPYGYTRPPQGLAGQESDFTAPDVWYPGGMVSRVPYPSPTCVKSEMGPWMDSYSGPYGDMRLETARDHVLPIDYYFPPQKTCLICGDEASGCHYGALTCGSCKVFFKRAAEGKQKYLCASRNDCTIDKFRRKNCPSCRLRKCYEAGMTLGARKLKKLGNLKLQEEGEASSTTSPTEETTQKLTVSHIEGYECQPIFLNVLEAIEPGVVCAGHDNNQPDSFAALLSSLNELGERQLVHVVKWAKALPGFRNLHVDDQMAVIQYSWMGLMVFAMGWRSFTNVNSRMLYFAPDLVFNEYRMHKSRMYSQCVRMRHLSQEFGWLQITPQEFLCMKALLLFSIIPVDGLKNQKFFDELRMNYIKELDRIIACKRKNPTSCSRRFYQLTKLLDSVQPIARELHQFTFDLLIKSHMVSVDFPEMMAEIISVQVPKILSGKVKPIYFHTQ

Work on “in vitro translated AR (from UniProt P10275 1-920) (natural protein)” yielded a percent decrease of pulled-down AR with 1 nM testosterone [1] of 43%, a percent decrease of pulled-down AR with 10 nM testosterone [1] of 65.6% and a percent decrease of pulled-down AR with 100 nM testosterone [1] of 93.1%. For the same substance, the percent stronger pull-down by M8-Nt than by M8-Ct [2] was 48%.
